These results are taken from US20250289897A1, “LEPTIN RECEPTOR AGONISTIC ANTIBODY AS MONO OR COMBO THERAPIES TO TREAT OBESITY” (ELI LILLY AND COMPANY, priority 2024, published 2025).

Broadly, the EC50 is the concentration needed to bring the measured effect to its halfway point.

For the experiment, the target named is T1, mouse-LEPR (Mus musculus, UniProt P48356).
T1 construct: introducing DNA plasmids encoding full-length LEPR of different species and STAT3-luciferase reporter gene into HEK293 cells; expressed in transfected cells; host or cells: HEK293 (HEK293-STAT3Luc-msLepR9)
T1 sequence (P48356 22-1162): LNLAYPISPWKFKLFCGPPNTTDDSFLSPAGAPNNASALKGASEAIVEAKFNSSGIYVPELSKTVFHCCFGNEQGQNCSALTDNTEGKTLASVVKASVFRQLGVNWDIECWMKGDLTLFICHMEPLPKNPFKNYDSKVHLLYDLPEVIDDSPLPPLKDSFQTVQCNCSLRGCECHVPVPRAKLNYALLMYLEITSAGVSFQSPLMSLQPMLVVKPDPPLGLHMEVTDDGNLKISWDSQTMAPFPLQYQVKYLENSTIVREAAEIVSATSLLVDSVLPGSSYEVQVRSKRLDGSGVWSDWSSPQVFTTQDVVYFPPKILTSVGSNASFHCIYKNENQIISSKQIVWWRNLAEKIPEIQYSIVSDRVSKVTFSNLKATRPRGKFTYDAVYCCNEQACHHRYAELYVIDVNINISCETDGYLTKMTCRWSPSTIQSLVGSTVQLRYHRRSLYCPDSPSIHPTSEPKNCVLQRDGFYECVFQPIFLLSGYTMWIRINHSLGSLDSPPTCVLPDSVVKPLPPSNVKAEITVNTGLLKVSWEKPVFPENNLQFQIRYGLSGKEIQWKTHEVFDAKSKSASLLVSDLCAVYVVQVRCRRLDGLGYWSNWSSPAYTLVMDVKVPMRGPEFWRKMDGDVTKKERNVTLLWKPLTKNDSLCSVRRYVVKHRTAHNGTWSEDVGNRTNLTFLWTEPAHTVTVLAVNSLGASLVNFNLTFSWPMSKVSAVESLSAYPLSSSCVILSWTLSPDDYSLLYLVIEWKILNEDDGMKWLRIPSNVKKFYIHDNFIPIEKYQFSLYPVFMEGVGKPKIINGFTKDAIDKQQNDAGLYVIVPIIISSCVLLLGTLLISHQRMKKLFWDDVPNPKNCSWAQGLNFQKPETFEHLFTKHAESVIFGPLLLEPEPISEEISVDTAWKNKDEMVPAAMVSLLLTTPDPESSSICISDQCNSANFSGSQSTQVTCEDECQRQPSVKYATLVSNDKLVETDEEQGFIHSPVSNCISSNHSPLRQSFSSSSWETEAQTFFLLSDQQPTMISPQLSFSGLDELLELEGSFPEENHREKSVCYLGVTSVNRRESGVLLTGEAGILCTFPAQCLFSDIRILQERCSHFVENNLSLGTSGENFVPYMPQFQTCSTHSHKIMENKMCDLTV
The experiment is described as follows: STAT3-luciferase reporter assay in HEK293-STAT3Luc-msLepR9 cells. The format is cell-based. The text has this: LEPR is a cell surface single-pass transmembrane receptor. Activation of LEPR leads to phosphorylation of intracellular STAT3 (pSTAT3) and subsequent target gene transcription. To measure LEPR activation by anti-LEPR antibodies in the present disclosure, five independent STAT-luciferase reporter cell lines were established by introducing DNA plasmids encoding full-length LEPR of different species and STAT3-luciferase reporter gene into HEK293 cells (Table 4). […]
Before plating the cells for luciferase assays, the poly-D-Lysine coated 96-well plates (Corning Inc, #354651) were rinsed once with phosphate buffered solution (PBS). […] Cell lysing and One-Glo luciferase substrate solution (Promega, #E6120) were then added to each well, and relative luciferase units (RLUs) were measured on a ClarioStar plate reader. For each reporter cell line, positive control LEPR activation was calculated as the average RLUs stimulated by 20 nM recombinant human leptin protein (SEQ ID NO:27) minus the average RLUs of unstimulated cells and was set as maximum LEPR activation (100%). […]
In general terms: In a reporter assay the amount or activity of a reporter protein is the signal.

For “human leptin: recombinant human leptin protein (SEQ ID NO:27), positive control”, where the note is “antibodies at concentrations up to 90 nM, read-out: EC50 (nM) ± SEM”, the EC50 was determined as 0.0788 ± 0.017 nM. In addition, the “Agonism (%) ± SEM” value (vs 20 nM recombinant human leptin, antibodies up to 90 nM) is recorded as 116.17%.
